Patent EP3620472A1

Key:
[1] = biological target: recombinant mature human PAI-1 (24-402) stabilized in active conformation (N150H, K154T, Q319L, M354I) (human) (UniProt P05121); assay: crystal structure, light chain, average of 4 complexes
[2] = biological target: recombinant mature human PAI-1 (24-402) stabilized in active conformation (N150H, K154T, Q319L, M354I) (human) (UniProt P05121); assay: crystal structure, heavy chain, average of 4 complexes
[3] = biological target: cynomolgus PAI-1 (cynomolgus (Macaca fascicularis)); assay: crystal structure, heavy chain, average of 2 complexes
[4] = biological target: cynomolgus PAI-1 (cynomolgus (Macaca fascicularis)); assay: crystal structure, light chain, average of 2 complexes

surface area of the interaction [1]: 372 Å^2
surface area of the interaction [2]: 674 Å^2
surface area of the interaction [3]: 703 Å^2
surface area of the interaction [4]: 360 Å^2
B1: Fab A44V11 (Fab, V domains shown)
VH: QMTLKESGPTLVKPTQTLSLTCSVSGDSMTNGYWNWIRQFPGKALEYMGYITYSGSTYYNPSLKGRITITRDTSKNQYYLTLSSVTTVDTATYYCARWHYGSPYYFDYWGQGTTLTVSS
VL: DIKMTQSPSSLSASVGDRVTITCKASQDINSYLSWLQQKPGKSPKTLIYRAQRSVEGVPSRFSGSGSGQDYSLTISSLQPEDLGIYYCLQYDEFPPTFGGGTKLEIK
